Results taken from patent US20190135921A1, “METHODS OF PREVENTING OR TREATING SLAMF7 POSITIVE AND SLAMF7 NEGATIVE CANCERS” (ADAERATA, LIMITED PARTNERSHIP, priority 2016, published 2019).

Assays:
thymocytes = assay: induction of apoptotic thymocytes (annexin V); format: cell-based, mouse; settings: 1 μM, 10 hours, 37° C.; data not shown
[1] = system: Colo205, SW480 and SW620 cells; assay: in vitro phagocytosis assay, mouse BMDMs with human non-hematopoietic tumor cells; format: cell-based; settings: BMDMs pretreated with LPS; FIG. 2R
Experimental: In vitro phagocytosis assays. For the microscopy-based assay, 5×10^4 macrophages were seeded overnight in a 24-well tissue culture plate. On the next day, target cells were washed and labeled with 2.5 μM of carboxyfluorescein succinimidyl ester (CFSE), using the CFSE Cell Proliferation Kit (C34554; Life Technologies, Burlington, ON, Canada). After incubating macrophages in serum-free medium for 2 hours, 2×10^5 CFSE-labeled target cells were added to the macrophages, in the presence of anti-CD47 Ab or control IgG (10 μg/mL). After incubation for 2 hours at 37° C., macrophages were extensively washed and imaged with an inverted microscope (Carl Zeiss Axiovert™ S100 TV). The phagocytosis efficiency was calculated as the number of macrophages containing CFSE^+ target cells per 100 macrophages. […] Cells were then stained on ice for 30 minutes with APC conjugated-anti-human Tac (CD25) and PE-conjugated MAb F4/80, and analyzed by flow cytometry. After gating on F4/80^+Tac^− cells (which include macrophages but exclude non-phagocytosed Tac-positive L1210 cells), phagocytosis efficiency was determined as the percentage of F4/80^+Tac^− cells containing CFSE-derived green fluorescence (detected in FL1 channel). […] They were then stained with APC-conjugated anti-F4/80 and analyzed by flow cytometry. […] Phagocytosis was monitored by microscopy. […]

[2] = target: T1, mouse CD11b (integrin alphaM, alpha subunit of Mac-1) (mouse, UniProt P05555 17-1153); assay: anti-CD11b immunoprecipitation from WT and CD11b KO BMDM lysates, mass spectrometry
T1 construct: whole, on cells; Together with CD18 it constitutes Mac-1; Endogenous protein recovered from cell lysates; also called Mac-1 (CD11b); CR3 alpha subunit
Experimental: (§1) Authenticated cells. (FIG. 9D) Lysates from the mouse macrophage cell line RAW264.7 expressing GFP alone or in combination with a FLAG-tagged version of mouse SLAMF7 (FLAG-SLAMF7) were immunoprecipitated with anti-FLAG. They were then probed by immunoblotting with anti-CD11b (Mac-1) or anti-SLAMF7. Total cell lysates were analyzed in parallel. (FIG. 9E) Co-localization of SLAMF7 and CD11b in RAW264.7 cells expressing GFP alone or with FLAG-SLAMF7 assessed by immunofluorescence. Semi-confluent RAW264.7 cells expressing GFP alone (bottom) or in combination with FLAG-SLAMF7 (top) were fixed and stained with antibodies against FLAG, CD11b (Mac-1) or CD18, as detailed in Example 1. Staining was detected by confocal microscopy. Scale bar, 5 μm. […] (FIG. 9F) As in FIG. 9E, except that only RAW264.7 cells expressing FLAG-SLAMF7 were analyzed and that antibodies coupled to different fluorophores were used. […] (FIG. 9G-A and FIG. 9G-B) RAW264.7 derivatives expressing GFP alone or in combination with FLAG-SLAMF7 were analyzed by flow cytometry, using antibodies directed against FLAG and SLAMF7 (dotted lines). […]
(§2) Immunoprecipitations, mass spectrometry, immunoblots. […] In brief, immunoprecipitated proteins were digested with trypsin (Promega, Madison, Wis.) and analyzed by LC-MS/MS on a LTQ Orbitrap™ Velos (ThermoFisher Scientific, Bremen, Germany) equipped with a Proxeon nanoelectrospray™ ion source. […]

[3] = target: T1, mouse CD11b (integrin alphaM, alpha …); assay: anti-FLAG IP from RAW264.7 cells expressing FLAG-SLAMF7, anti-CD11b immunoblot; confocal co-localization
Experimental: as §1, §2

T1 sequence (P05555 17-1153): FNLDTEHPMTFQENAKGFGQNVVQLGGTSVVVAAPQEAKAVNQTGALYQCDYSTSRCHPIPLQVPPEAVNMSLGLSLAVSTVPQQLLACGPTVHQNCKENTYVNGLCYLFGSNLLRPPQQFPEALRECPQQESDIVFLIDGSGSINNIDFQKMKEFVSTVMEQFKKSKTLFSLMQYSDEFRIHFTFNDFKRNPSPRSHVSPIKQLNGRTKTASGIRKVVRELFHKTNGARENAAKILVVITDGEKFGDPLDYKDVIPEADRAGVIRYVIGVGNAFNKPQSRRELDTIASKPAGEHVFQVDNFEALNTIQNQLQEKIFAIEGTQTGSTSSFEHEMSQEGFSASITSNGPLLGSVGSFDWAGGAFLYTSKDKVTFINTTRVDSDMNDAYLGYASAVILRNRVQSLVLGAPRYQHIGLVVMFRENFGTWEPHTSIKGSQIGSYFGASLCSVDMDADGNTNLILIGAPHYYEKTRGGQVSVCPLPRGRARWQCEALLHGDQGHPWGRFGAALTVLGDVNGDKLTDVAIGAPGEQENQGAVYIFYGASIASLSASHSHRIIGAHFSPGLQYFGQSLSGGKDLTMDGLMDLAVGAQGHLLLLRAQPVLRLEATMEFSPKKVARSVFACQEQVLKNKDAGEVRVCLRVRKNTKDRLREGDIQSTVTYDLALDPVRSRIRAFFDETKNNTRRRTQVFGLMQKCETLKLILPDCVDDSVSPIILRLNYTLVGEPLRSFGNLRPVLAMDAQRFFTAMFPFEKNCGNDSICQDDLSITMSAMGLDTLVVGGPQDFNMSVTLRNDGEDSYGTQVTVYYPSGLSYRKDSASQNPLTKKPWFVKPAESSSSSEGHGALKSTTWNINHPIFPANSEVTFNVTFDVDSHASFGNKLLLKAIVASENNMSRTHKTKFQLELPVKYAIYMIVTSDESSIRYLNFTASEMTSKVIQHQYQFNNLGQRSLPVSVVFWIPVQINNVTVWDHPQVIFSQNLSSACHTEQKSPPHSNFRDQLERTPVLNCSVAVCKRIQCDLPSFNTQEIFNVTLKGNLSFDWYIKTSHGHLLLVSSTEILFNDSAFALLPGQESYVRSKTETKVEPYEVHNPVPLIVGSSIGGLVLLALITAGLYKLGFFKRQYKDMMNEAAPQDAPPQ

## C[C@@H]1C[C@H]2[C@@H]3CCC4=CC(=O)C=C[C@]4(C)[C@@]3(F)[C@@H](O)C[C@]2(C)[C@@]1(O)C(=O)CO [dexamethasone]
thymocytes
  cells becoming apoptotic (annexin V-positive): about 70%

## lipopolysaccharide [LPS]
[1]
  phagocytosis of non-hematopoietic targets: phagocytosis of non-hematopoietic targets was seen

B1: mouse CD16 (Fc receptor) (receptor, UniProt P08508 31-261, looked up)
chain: ALPKAVVKLDPPWIQVLKEDMVTLMCEGTHNPGNSSTQWFHNGRSIRSQVQASYTFKATVNDSGEYRCQMEQTRLSDPVDLGVISDWLLLQTPQRVFLEGETITLRCHSWRNKLLNRISFFHNEKSVRYHHYKSNFSIPKANHSHSGDYYCKGSLGSTQHQSKPVTITVQDPATTSSISLVWYHTAFSLVMCLLFAVDTGLYFYVRRNLQTPREYWRKSLSIRKHQAPQDK
notes: whole, on cells
[2]
  binding result: no binding

B2: FLAG-tagged version of mouse SLAMF7 (receptor, UniProt Q8BHK6 23-333, looked up)
chain: SGTLKKVAGALDGSVTFTLNITEIKVDYVVWTFNTFFLAMVKKDGVTSQSSNKERIVFPDGLYSMKLSQLKKNDSGAYRAEIYSTSSQASLIQEYVLHVYKHLSRPKVTIDRQSNKNGTCVINLTCSTDQDGENVTYSWKAVGQGDNQFHDGATLSIAWRSGEKDQALTCMARNPVSNSFSTPVFPQKLCEDAATDLTSLRGILYILCFSAVLILFAVLLTIFHTTWIKKGKGCEEDKKRVDRHQEMPDLCPHLEENADYDTIPYTEKRRPEEDAPNTFYSTVQIPKVVKSPSSLPAKPLVPRSLSFENVI
notes: whole, on cells; It was immunoprecipitated with anti-FLAG from RAW264.7 lysates; also called FLAG-SLAMF7; not shown: FLAG tag
[3]
  binding result: binds

B3: mouse CD64 (Fc receptor) (receptor, UniProt P26151 25-404, looked up)
chain: EVVNATKAVITLQPPWVSIFQKENVTLWCEGPHLPGDSSTQWFINGTAVQISTPSYSIPEASFQDSGEYRCQIGSSMPSDPVQLQIHNDWLLLQASRRVLTEGEPLALRCHGWKNKLVYNVVFYRNGKSFQFSSDSEVAILKTNLSHSGIYHCSGTGRHRYTSAGVSITVKELFTTPVLRASVSSPFPEGSLVTLNCETNLLLQRPGLQLHFSFYVGSKILEYRNTSSEYHIARAEREDAGFYWCEVATEDSSVLKRSPELELQVLGPQSSAPVWFHILFYLSVGIMFSLNTVLYVKIHRLQREKKYNLEVPLVSEQGKKANSFQQVRSDGVYEEVTATASQTTPKEAPDGPRSSVGDCGPEQPEPLPPSDSTGAQTSQS
notes: whole, on cells
[2]
  binding result: no binding
